# Numbering of substitutions follows the chain as printed.
# T1: human TREM2 (human, UniProt Q9NZC2 19-174, limits assumed)
# T1 construct: also called triggering receptor expressed on myeloid cells 2
# T1 sequence: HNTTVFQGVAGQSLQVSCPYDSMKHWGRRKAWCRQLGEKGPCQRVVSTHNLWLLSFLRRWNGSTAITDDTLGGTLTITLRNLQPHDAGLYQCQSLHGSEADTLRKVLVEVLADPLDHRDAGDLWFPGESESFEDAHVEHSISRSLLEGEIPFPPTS
# B1: V2 (antibody, V domains shown)
# VH: EVQLVQSGAEVKKPGESLKISCKGSGSSFTSYWIAWVRQMPGKGLEWMGIIYPGDGDTRYSPSFQGQVTISADKSISTAYLQWSSLKASDTAMYFCARSRTFYYDSSDYFDYWGQGTLVTVSS
# VL: DIQMTQSPSSVSASVGDRVTITCRASQGISSWLAWYQQKPGKAPKLLIYAASSRQNGVPSRFSGSGSGTDFTLTISSLQPEDFATYFCQQADRFPRTFGQGTKLEIK
# notes: also called 6E7 variant V2
# B2: V60 (antibody, V domains shown)
# VH: B1 VH with S27Y, S28H, G56S, T58V, S99Q, F110S
# VL: B1 VL with R54L, N56R, Q89G, R93S
# notes: also called 6E7 variant V60; LV-108/HV-108
# B3: V41 (antibody, V domains shown)
# VH: B1 VH with S27Y, I50T, G56S, S99Q
# VL: B1 VL with R54L, R93S
# notes: also called 6E7 variant V41
# B4: V13 (antibody, V domains shown)
# VH: B1 VH with S27Y, T30G, G56S, P62A, S99G
# VL: B1 VL with R54L, N56G, R93S, F94M
# notes: also called 6E7 variant V13
# B5: V28 (antibody, V domains shown)
# VH: B1 VH with S27Y, T30Q, I50T, G56S, S99Q, Y103F
# VL: B1 VL with R54L, N56S, R93S, F94L
# notes: also called 6E7 variant V28
# B6: V24 (antibody, V domains shown)
# VH: B1 VH with S27Y, G56S, T58V
# VL: B1 VL with R54L, N56K, R93S, R96H
# notes: also called 6E7 variant V24
# B7: V14 (antibody, V domains shown)
# VH: B1 VH with S27Y, T30G, G56Q, S99G
# VL: B1 VL with S53R, R54L, R93S
# notes: also called 6E7 variant V14
# B8: V5 (antibody, V domains shown)
# VH: B1 VH with S27Y, I50T, G56S, S99Q
# VL: B1 VL with R54L, R93S, F94H
# notes: also called 6E7 variant V5
# B9: V29 (antibody, V domains shown)
# VH: B1 VH with S27Y, T30K, G56S, S99Q
# VL: B1 VL with R54L, R93S
# notes: also called 6E7 variant V29
# B10: V15 (antibody, V domains shown)
# VH: B1 VH with S27Y, T30A, I50T, G56S
# VL: B1 VL with S53W, R54L, R93S, F94Y
# notes: also called 6E7 variant V15
# B11: V63 (antibody, V domains shown)
# VH: B1 VH with S27Y, T30R, G56S
# VL: B1 VL with R54L, N56R
# notes: also called 6E7 variant V63
# B12: V53 (antibody, V domains shown)
# VH: B1 VH with S27Y, G56S, S63H, S99Q
# VL: B1 VL with R54L, R93S
# notes: also called 6E7 variant V53
# B13: V26 (antibody, V domains shown)
# VH: B1 VH with S27Y, A35G, I50T, G56S, S99Q, F102M, Y112A
# VL: B1 VL with R54L, N56R, R93S, F94Y
# notes: also called 6E7 variant V26
# B14: V27 (antibody, V domains shown)
# VH: B1 VH with S27Y, G56S, S61A, A97V
# VL: B1 VL with R54L, N56R, R93S
# notes: also called 6E7 variant V27; LV-103/HV-103
# B15: V16 (antibody, V domains shown)
# VH: B1 VH with S27Y, F29M
# VL: B1 VL with S53N, R54L, R93S
# notes: also called 6E7 variant V16
# B16: V48 (antibody, V domains shown)
# VH: B1 VH with S27Y, T30G, G56S, T58V, S99M
# VL: B1 VL with R54L, N56T, R93S, F94L
# notes: also called 6E7 variant V48
# B17: V51 (antibody, V domains shown)
# VH: B1 VH with S27Y, G56S, T58V, S99G, Y112N
# VL: B1 VL with R93S
# notes: also called 6E7 variant V51
# B18: V50 (antibody, V domains shown)
# VH: B1 VH with S27Y, T30G, I50V, G56S, S99Q, F110L
# VL: B1 VL with R93S, F94L
# notes: also called 6E7 variant V50
# B19: V37 (antibody, V domains shown)
# VH: B1 VH with S27Y, F29H, G56S, Q65A
# VL: B1 VL with R54L, N56W, R93S, F94Y
# notes: also called 6E7 variant V37
# B20: V38 (antibody, V domains shown)
# VH: B1 VH with S27Y, T30G, G56S, T58V, S99Q
# VL: B1 VL with R93S, F94H
# notes: also called 6E7 variant V38
# B21: V40 (antibody, V domains shown)
# VH: B1 VH with S27Y, T30G, G56S, T58V, S99Q, F110S
# VL: B1 VL with R54L, N56L
# notes: also called 6E7 variant V40
# B22: V25 (antibody, V domains shown)
# VH: B1 VH with S27Y, T30G, I50L, G56S
# VL: B1 VL with R54L, Q55A, R93S, F94M
# notes: also called 6E7 variant V25
# B23: V4 (antibody, V domains shown)
# VH: B1 VH with S27Y, T30G, G56S, Y60V
# VL: B1 VL with S53R, R54L, R93S, F94Y
# notes: also called 6E7 variant V4
# B24: V39 (antibody, V domains shown)
# VH: B1 VH with S27Y, T30G, G56S, S61N, S99G
# VL: B1 VL with R54L, Q55V, R93S, F94S
# notes: also called 6E7 variant V39
# B25: V52 (antibody, V domains shown)
# VH: B1 VH with S27Y, T30E, G56S, S99G
# VL: B1 VL with R54L, N56R
# notes: also called 6E7 variant V52; LV-107/HV-107
# B26: V3 (antibody, V domains shown)
# VH: B1 VH with S27Y, T30A, G56S, G66D, S99G
# VL: B1 VL
# notes: also called 6E7 variant V3; LV-101/HV-101
# B27: V62 (antibody, V domains shown)
# VH: B1 VH with S27Y, T30G, G56S, S61A, S99Q, D108G
# VL: B1 VL with R54L, N56R, Q89G, R93S
# notes: also called 6E7 variant V62
# B28: V61 (antibody, V domains shown)
# VH: B1 VH with S27Y, T30S, G56S, S61N, S99G
# VL: B1 VL with R54L, Q55V, R93S, F94L
# notes: also called 6E7 variant V61
# B29: V36 (antibody, V domains shown)
# VH: B1 VH with S27Y, I34L, G56S
# VL: B1 VL with R93S, F94Y
# notes: also called 6E7 variant V36
# B30: V49 (antibody, V domains shown)
# VH: B1 VH with S27Y, T30N, I50T, G56S, Y60L
# VL: B1 VL with R93S, F94Y
# notes: also called 6E7 variant V49; LV-106/HV-106
# B31: V17 (antibody, V domains shown)
# VH: B1 VH with S27Y, T30G, G56S
# VL: B1 VL with R93S, F94S
# notes: also called 6E7 variant V17
# Target: T1, human TREM2
# Test: 2nd screen, 10 nM
row,Binder,Binding Signal
1,B1,2.9 fold over 6E7 parental antibody
2,B2,3.63 fold over 6E7 parental antibody
3,B3,1.72 fold over 6E7 parental antibody
4,B4,1.35 fold over 6E7 parental antibody
5,B5,3.61 fold over 6E7 parental antibody
6,B6,2.9 fold over 6E7 parental antibody
7,B7,4.64 fold over 6E7 parental antibody
8,B8,2.84 fold over 6E7 parental antibody
9,B9,1.67 fold over 6E7 parental antibody
10,B10,4.78 fold over 6E7 parental antibody
11,B11,3.71 fold over 6E7 parental antibody
12,B12,1.17 fold over 6E7 parental antibody
13,B13,3.47 fold over 6E7 parental antibody
14,B14,5.69 fold over 6E7 parental antibody
15,B15,4.04 fold over 6E7 parental antibody
16,B16,2.54 fold over 6E7 parental antibody

row,Binder,Binding Signal
1,B17,3.18 fold over 6E7 parental antibody
2,B18,4.16 fold over 6E7 parental antibody
3,B19,3.49 fold over 6E7 parental antibody
4,B20,4.36 fold over 6E7 parental antibody
5,B21,4.16 fold over 6E7 parental antibody
6,B22,4.7 fold over 6E7 parental antibody
7,B23,5.51 fold over 6E7 parental antibody
8,B24,5.81 fold over 6E7 parental antibody
9,B25,3.09 fold over 6E7 parental antibody
10,B26,2.24 fold over 6E7 parental antibody
11,B27,2.89 fold over 6E7 parental antibody
12,B28,5.22 fold over 6E7 parental antibody
13,B29,3.44 fold over 6E7 parental antibody
14,B30,6.58 fold over 6E7 parental antibody
15,B31,5.51 fold over 6E7 parental antibody

# Target: T1, human TREM2
# Test: 2nd screen, 2 nM
row,Binder,Binding Signal
1,B1,2.23 fold over 6E7 parental antibody
2,B2,3.35 fold over 6E7 parental antibody
3,B3,0.58 fold over 6E7 parental antibody
4,B4,1.15 fold over 6E7 parental antibody
5,B5,2.63 fold over 6E7 parental antibody
6,B6,1.42 fold over 6E7 parental antibody
7,B7,2.57 fold over 6E7 parental antibody
8,B8,1.25 fold over 6E7 parental antibody
9,B9,0.84 fold over 6E7 parental antibody
10,B10,4.72 fold over 6E7 parental antibody
11,B11,4.91 fold over 6E7 parental antibody
12,B12,0.66 fold over 6E7 parental antibody
13,B13,2.83 fold over 6E7 parental antibody
14,B14,5.67 fold over 6E7 parental antibody
15,B15,3.57 fold over 6E7 parental antibody
16,B16,2.3 fold over 6E7 parental antibody

row,Binder,Binding Signal
1,B17,1.83 fold over 6E7 parental antibody
2,B18,3.39 fold over 6E7 parental antibody
3,B19,3.69 fold over 6E7 parental antibody
4,B20,3.44 fold over 6E7 parental antibody
5,B21,3.41 fold over 6E7 parental antibody
6,B22,3.15 fold over 6E7 parental antibody
7,B23,5.88 fold over 6E7 parental antibody
8,B24,5.11 fold over 6E7 parental antibody
9,B25,1.78 fold over 6E7 parental antibody
10,B26,1.95 fold over 6E7 parental antibody
11,B27,1.87 fold over 6E7 parental antibody
12,B28,3.63 fold over 6E7 parental antibody
13,B29,4 fold over 6E7 parental antibody
14,B30,5.02 fold over 6E7 parental antibody
15,B31,4.22 fold over 6E7 parental antibody

# Target: T1, human TREM2
# Test: 1st screen, 10 nM Ab
row,Binder,Binding Signal
1,B1,2.55 fold over 6E7 parental antibody
2,B2,3.26 fold over 6E7 parental antibody
3,B3,1.74 fold over 6E7 parental antibody
4,B4,1.31 fold over 6E7 parental antibody
5,B5,3.08 fold over 6E7 parental antibody
6,B6,2.64 fold over 6E7 parental antibody
7,B7,4.71 fold over 6E7 parental antibody
8,B8,2.73 fold over 6E7 parental antibody
9,B9,1.53 fold over 6E7 parental antibody
10,B10,5.23 fold over 6E7 parental antibody
11,B11,3.76 fold over 6E7 parental antibody
12,B12,1.25 fold over 6E7 parental antibody
13,B13,3.57 fold over 6E7 parental antibody
14,B14,5.5 fold over 6E7 parental antibody
15,B15,4.01 fold over 6E7 parental antibody
16,B16,2.42 fold over 6E7 parental antibody

row,Binder,Binding Signal
1,B17,2.81 fold over 6E7 parental antibody
2,B18,4.1 fold over 6E7 parental antibody
3,B19,3.46 fold over 6E7 parental antibody
4,B20,4.34 fold over 6E7 parental antibody
5,B21,4.48 fold over 6E7 parental antibody
6,B22,4.23 fold over 6E7 parental antibody
7,B23,6 fold over 6E7 parental antibody
8,B24,6.15 fold over 6E7 parental antibody
9,B25,3 fold over 6E7 parental antibody
10,B26,1.97 fold over 6E7 parental antibody
11,B27,2.49 fold over 6E7 parental antibody
12,B28,5.08 fold over 6E7 parental antibody
13,B29,3.38 fold over 6E7 parental antibody
14,B30,6.51 fold over 6E7 parental antibody
15,B31,5.37 fold over 6E7 parental antibody

# From patent US20250326839A1 (VIGIL NEUROSCIENCE, published 2025)
